For experiment [1], the target named is T1, RGL2 (Arabidopsis DELLA protein), yeast two-hybrid prey in pGADT7 AD vector (Arabidopsis, UniProt Q8GXW1 1-547).
T1 construct: also called AtDELLA
T1 sequence (looked up): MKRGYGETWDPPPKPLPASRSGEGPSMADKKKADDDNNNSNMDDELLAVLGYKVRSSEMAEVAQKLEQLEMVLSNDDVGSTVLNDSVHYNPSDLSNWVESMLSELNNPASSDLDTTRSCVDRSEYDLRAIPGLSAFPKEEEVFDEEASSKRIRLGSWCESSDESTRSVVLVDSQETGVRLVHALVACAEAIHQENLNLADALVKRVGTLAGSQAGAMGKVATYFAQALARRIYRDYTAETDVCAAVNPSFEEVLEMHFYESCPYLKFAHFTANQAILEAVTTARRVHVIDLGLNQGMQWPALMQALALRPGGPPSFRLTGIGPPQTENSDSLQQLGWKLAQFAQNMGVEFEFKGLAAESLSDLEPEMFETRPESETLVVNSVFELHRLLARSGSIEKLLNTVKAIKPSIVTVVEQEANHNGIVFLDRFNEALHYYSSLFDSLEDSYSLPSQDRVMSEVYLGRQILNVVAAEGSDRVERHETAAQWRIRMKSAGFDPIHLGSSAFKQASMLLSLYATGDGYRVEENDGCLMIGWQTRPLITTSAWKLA
In words: yeast two-hybrid system. As to the method: (§1) Arabidopsis has five DELLA proteins (RGA, GAI, RGL1, RGL2, and RGL3; collectively designated AtDELLA; Fleet, C. M., and Sun, T.-P. (2005) Curr. Opin. Plant Biol., 8, 77-85; Dill, A., and Sun, T. (2001) Genetics, 159, 777-785); therefore, there are 15 possible combinations of GID1/DELLA proteins. To verify the positive interactions between AtGID1-AtDELLA, two experiments were conducted using the yeast two hybrid (Y2H) system. In the first experiment (Assay A), a viable colony assay using a defined medium in which only positive clones would survive was carried out. In the second experiment (Assay B), β-galactosidase activity was measured, as reporter gene product of AtGID1-AtDELLA interactions.
(§2) BD Matchmaker Two-hybrid System 3 (Clontech, Palo Alto, Calif., USA; now part of Takara Bio) was used in the Y2H experiments. After confirming the PCR products of the AtGID1 genes by sequencing, PCR products were cloned into pGBKT7 DNA-BD shuttle vector to construct bait plasmids. Likewise, the entire coding region of each AtDELLA gene (GAI including EcoRI and XhoI sites; RGA including BamHI and XhoI sites; RGL1 including SmaI and SacI sites; RGL2 including SmaI and ClaI sites; RGL3 including SmaI and XhoI sites on the ends) was cloned into pGADT7 AD vector. The S. cerevisiae AH109 (MATa) strain or Y187 (MATα) strain was used, and DNA-BD and AD vector cassettes were used as negative controls. The details of the method used for the yeast assay are as described in the manufacturer's instructions (Yeast Protocols Handbook #PT3024-1; http://www.clontech.com/). Experiments were carried out four times independently. Similar results were obtained each time.

In experiment [2] the target is T2, RGL3 (Arabidopsis DELLA protein), yeast two-hybrid prey in pGADT7 AD vector (Arabidopsis, UniProt Q9LF53 1-523).
T2 construct: also called AtDELLA
T2 sequence (looked up): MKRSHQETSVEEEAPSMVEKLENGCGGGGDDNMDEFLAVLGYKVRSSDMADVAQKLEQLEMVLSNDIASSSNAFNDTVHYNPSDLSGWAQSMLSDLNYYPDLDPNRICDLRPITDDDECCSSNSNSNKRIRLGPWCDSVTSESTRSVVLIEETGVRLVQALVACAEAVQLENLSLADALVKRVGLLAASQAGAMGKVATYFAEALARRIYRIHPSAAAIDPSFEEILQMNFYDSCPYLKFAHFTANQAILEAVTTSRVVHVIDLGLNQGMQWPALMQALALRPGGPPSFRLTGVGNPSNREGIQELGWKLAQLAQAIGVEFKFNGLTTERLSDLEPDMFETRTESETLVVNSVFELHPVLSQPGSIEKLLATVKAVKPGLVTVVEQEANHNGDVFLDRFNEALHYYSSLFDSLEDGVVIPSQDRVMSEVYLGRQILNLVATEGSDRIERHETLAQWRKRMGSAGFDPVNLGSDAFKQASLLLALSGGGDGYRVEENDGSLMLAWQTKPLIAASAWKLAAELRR
Kind of experiment: yeast two-hybrid system. How it is done:
as §1, §2

Experiment [3] concerns the target T3, GAI (Arabidopsis DELLA protein), yeast two-hybrid prey in pGADT7 AD vector (Arabidopsis, UniProt Q9LQT8 1-533).
T3 construct: also called AtDELLA
T3 sequence (looked up): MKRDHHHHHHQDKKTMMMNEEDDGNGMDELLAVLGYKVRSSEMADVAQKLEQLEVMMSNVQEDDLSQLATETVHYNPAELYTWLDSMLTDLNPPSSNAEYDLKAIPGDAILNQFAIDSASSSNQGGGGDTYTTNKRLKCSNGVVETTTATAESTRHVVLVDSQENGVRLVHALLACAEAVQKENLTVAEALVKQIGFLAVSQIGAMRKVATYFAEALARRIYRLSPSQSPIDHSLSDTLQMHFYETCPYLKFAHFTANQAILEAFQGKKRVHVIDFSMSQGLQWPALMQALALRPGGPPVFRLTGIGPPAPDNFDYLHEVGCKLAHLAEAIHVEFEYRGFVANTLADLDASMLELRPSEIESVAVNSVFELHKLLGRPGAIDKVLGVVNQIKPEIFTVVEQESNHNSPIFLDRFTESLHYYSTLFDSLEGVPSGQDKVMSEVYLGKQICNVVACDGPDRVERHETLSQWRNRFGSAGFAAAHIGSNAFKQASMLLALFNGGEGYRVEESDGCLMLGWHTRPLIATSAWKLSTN
Kind of experiment: yeast two-hybrid without GA (FIG. 11); member GAI named in the legend of FIG. 11. How it is done: as §1
BD Matchmaker Two-hybrid System 3 (Clontech, Palo Alto, Calif., USA; now part of Takara Bio) was used in the Y2H experiments. After confirming the PCR products of the AtGID1 genes by sequencing, PCR products were cloned into pGBKT7 DNA-BD shuttle vector to construct bait plasmids. […]
Thus, GA₄ (10⁻⁵ M) was used and added to the medium. […] As described above, all AtGID1-AtDELLA interactions were detected in a GA-dependent manner; however, interactions between AtGID1b and some AtDELLAs were detected, albeit weakly, in the absence of GA (FIG. 11).

Consider 2 molecules from patent US20090031441A1 (NATIONAL UNIVERSITY CORPORATION NAGOYA UNIVERSITY, published 2009).

B1: AtGID1a (At3g05120), yeast two-hybrid bait in pGBKT7 DNA-BD vector (receptor, not shown: small tags and cut ends)
chain: MAASDEVNLIESRTVVPLNTWVLISNFKVAYNILRRPDGTFNRHLAEYLDRKVTANANPVDGVFSFDVLIDRRINLLSRVYRPAYADQEQPPSILDLEKPVDGDIVPVILFFHGGSFAHSSANSAIYDTLCRRLVGLCKCVVVSVNYRRAPENPYPCAYDDGWIALNWVNSRSWLKSKKDSKVHIFLAGDSSGGNIAHNVALRAGESGIDVLGNILLNPMFGGNERTESEKSLDGKYFVTVRDRDWYWKAFLPEGEDREHPACNPFSPRGKSLEGVSFPKSLVVVAGLDLIRDWQLAYAEGLKKAGQEVKLMHLEKATVGFYLLPNNNHFHNVMDEISAFVNAEC
notes: Bait fusion for the Y2H assays (BD Matchmaker Two-hybrid System 3); also called Arabidopsis GID1
As for B1, the binding result in experiment [1] and in experiment [2] was “binds” in each case.

B2: AtGID1b (At3g63010), yeast two-hybrid bait in pGBKT7 DNA-BD vector (receptor, not shown: small tags and cut ends)
chain: MAGGNEVNLNECKRIVPLNTWVLISNFKLAYKVLRRPDGSFNRDLAEFLDRKVPANSFPLDGVFSFDHVDSTTNLLTRIYQPASLLHQTRHGTLELTKPLSTTEIVPVLIFFHGGSFTHSSANSAIYDTFCRRLVTICGVVVVSVDYRRSPEHRYPCAYDDGWNALNWVKSRVWLQSGKDSNVYVYLAGDSSGGNIAHNVAVRATNEGVKVLGNILLHPMFGGQERTQSEKTLDGKYFVTIQDRDWYWRAYLPEGEDRDHPACNPFGPRGQSLKGVNFPKSLVVVAGLDLVQDWQLAYVDGLKKTGLEVNLLYLKQATIGFYFLPNNDHFHCLMEELNKFVHSIEDSQSKSSPVLLTP
notes: Bait fusion for the Y2H assays; also called Arabidopsis GID1
For B2, the binding result in experiment [1] and in experiment [3] was “binds” in each case.
